Assay [1] addresses T1, V7-AMG510 HLA-A*03:01 MHC-I complex (human).
T1 construct: also called V7-Sotorasib A*03:01; V7-510 A*03:01
As to the kind of experiment: competition ELISA: the concentration is that of free AMG510 (small molecule, the varied competitor) preincubated with the Fab; read-out is Fab binding to streptavidin-captured V7-AMG510 HLA-A*03:01, anti-myc IgG-HRP; legend calls the values approximate. For orientation: An ELISA detects its analyte on a solid surface through an enzyme-linked reagent.
Procedure: FIG. 3A-3D show characterizations of six V7-AMG510 A*03:01-reactive Fabs. […] Approximate IC₅₀ values for free drug (AMG510) competition for each clone are reported, as derived from FIG. 3C. […] Recombinant V7-AMG510 HLA-A*03:01 was captured via streptavidin in an ELISA and increasing amounts of free AMG510 preincubated with the indicated clones in Fab format before detection of Fab binding with an anti-myc secondary IgG-HRP conjugate. Data are presented as the mean #standard deviation of three replicates. […] Data are presented as the mean±standard deviation of four replicates.

Assay [2] concerns the target T1, V7-AMG510 HLA-A*03:01 MHC-I complex. As to the kind of experiment: BLI (Octet), Fab on immobilised biotinylated pMHC. (In general: BLI is a label-free optical method that tracks binding on a fibre tip over time.)
Procedure: (§1) Kinetic measurements via Octet. Kinetic constants for Fabs were determined using an Octet RED384 instrument (ForteBio). For screens, a single concentration of Fab (100 nM) was tested, and for kinetic characterization Fabs were tested at several concentrations, as noted in the relevant figure. Biotinylated peptides (1 μM in 1% BSA/PBS) or biotinylated MHC-I complexes (200 nM in 1% BSA/PBS) were immobilized on ForteBio streptavidin SA biosensors for all assays. All measurements were performed in 1% BSA PBS pH 7.4 in 384 well plates. Data were analyzed using a 1:1 interaction model with global fitting on the ForteBio data analysis software (9.0.0.6). KD values were determined by the fitting of either equilibrium or maximum response (nm) as a function of Fab concentration.
For assay [3] the target is unchanged. As to the kind of experiment: BLI (Octet), derived from FIG. 3A; biotinylated MHC-I complex on streptavidin biosensor.
Procedure: as §1
Assay [4] shares this target. As to the kind of experiment: BLI, Fab on pMHC.
Procedure: as §1
Assay [5] deals with T2, V7-ARS1620 HLA-A*03:01 MHC-I complex (human).
T2 construct: also called V7-ARS HLA-A*03:01; V7-ARS A*03:01
As to the kind of experiment: competition ELISA: the concentration is that of free ARS1620 (small molecule, the varied competitor); read-out is P2B2 IgG-HRP binding to W6/32-captured A*03:01/V7-ARS.
Procedure: The complexes were captured by the conformation-specific antibody W6/32 and detected by the ARS1620-specific antibody (P1A4) in the presence of various amounts of free ARS1620. Data is presented as mean±standard deviation for four replicates.
MHC-I refolding and purification. […] Refolding reactions were performed with various peptides of interest in refolding buffer (100 mM Tris pH 8.0, 400 mM L-Arginine.HCl, 5 mM reduced glutathione, 0.5 mM oxidized glutathione, 2 mM EDTA, and complete protease inhibitor cocktail (Roche)). Briefly, B2m (2 μM) and peptide (10 μM) were diluted into refolding buffer, then denatured heavy chain was added to 1 μM. Reactions proceeded at 10° C. overnight for ELISA assays. MHC-I ELISAs. Black, 384 well Nunc Maxisorp plates were coated with 50 μL of the anti-heavy chain antibody W6/32 (Bio X Cell Cat #BE0079, RRID:AB_1107730) at 5 μg/mL in PBS overnight. The plate was washed twice with PBS (100 μL) and blocked with 3% BSA PBS (120 μL) for 1 hour at room temperature. Plates were then washed three times with 0.05% Tween-20 PBS (PBST) (100 μL). Refolded MHC complexes (crude or FPLC purified) were diluted 10× into 1% BSA PBS and 50 μL added to wells in quadruplicate. Plates were incubated at room temperature with shaking for 1 hour, then washed three times with 1% BSA PBS (100 μL).

Assay [6] concerns the target T3, K5-ARS1620 HLA-A*02:01 MHC-I complex (human).
T3 construct: also called K5-ARS HLA-A*02:01
Put plainly: BLI (Octet), Fab on immobilised biotinylated pMHC.
Procedure: as §1

In assay [7] the target is T2, V7-ARS1620 HLA-A*03:01 MHC-I complex. As to the kind of experiment: BLI (Octet), Fab on immobilised biotinylated pMHC.
Procedure: as §1

B1: P2C1 Fab (Fab, V domains shown)
VH: EVQLVQSGAEVKKPGSSVKVSCKASGGTFSSYAISWVRQAPGQGLEWMGIINPSGGSTSYAQKFQGRVTMTRDTSTSTVYMELSSLRSEDTAVYYCARDLGTIFEANGAFDIWGQGTMVTVSS
VL: QSALTQPASVSGSPGQSITISCTGTSSDVGSYNLVSWYQQHPGKAPKLMIYDVSNRPSGVSNRFSGSKSGNTASLTISGLQAEDEADYYCSSYTSSSTLVFGTGTNVTVLG
What is called Kd is the equilibrium constant for the complex coming apart. Regarding B1, the “AMG510 IC50” value in assay [1] is ~1500 nM. Also, in assay [2], the Kd was 230 nM.

B2: P2B6 Fab (Fab, V domains shown)
VH: QLQLQESGPGLVKPSETLSLTCTVSGVSISSRSDHWGWVRQPPGKGLEWIGSISYSGSTYYNPSLKSRVTISVDTSKNQLSLKLTSVTAADTAVYYCARRALAQQLVMDVWGQGTTVTVSS
VL: DVVMTQSPLSLPVTPGEPASISCRSSQSLLRNNGYNYLDWYLQKPGQSPQLLIYLGSNRASGVPDRFSGSGSGRDFTLKISRVEAEDVGIYYCMQGAHWPYTFGQGTNLEISR
B2: the “AMG510 IC50” value in assay [1] was ~74 nM. Further, the Kd in assay [3] stood at 29 nM.

B3: P1H4 Fab (Fab, V domains shown)
VH: EVQLVQSGAEVKKPGSSVKVSCKASGGTFSSYAISWVRQAPGQGLEWMGGIIPIFGTANYAQKFQGRVTITADKSTSTAYMELSSLRSEDTAVYYCAFNYYDSSGYSDYWGQGTLVTVSS
VL: ETTLTQSPGTLSLSPGERATLSCRASQSVSSSYLAWYQQKPGQAPRLLIYGASSRATGIPDRFSGSGSGTDFTLTISRLEPGDFAVYYCQQYGTSPITFGQGTRLEIKR
Turning to B3, in assay [1], the “AMG510 IC50” value is ~930 nM. In assay [3], this molecule displayed a Kd of 59 nM.

B4: P2E3 Fab (Fab, V domains shown)
VH: QVQLQESGPGLVKPSETLSLTCTVSGGSVSSSSYYWGWIRQPPGEGLEWIGSIYYSGSTYYNPSLKSRVTISVDTSKNQFSLKLSSVTAADTAVYYCATRLRGSFDYWGQGTLVTVSS
VL: DVVMTQSPLSLPVTPGEAASISCRSSQSLLHSNGYTYLDWYLQKPGQSPRLLIYSGSNRASGVPDRFSGSGSGTDFTLKISRVEAEDVGVYYCMQGTHWPYTFGQGTRLEIKR
Consider B4, for which binding in assay [3] was put at a Kd of 68 nM.

B5: P1B7 Fab (Fab, V domains shown)
VH: QVQLQQSGPGLVKPSQTLSLTCAISGDSVSSNSVAWNWIRQSPSRGLEWLGRTYYRSKWYSDYAVSVKSRITINPDTSKNQFSLQLTSMTPEDTAVYYCAREGVTMGPGAFDIWGQGTMVTVSS
VL: QSALTQPPSVSGSPGQSVTISCTGSSSDVGHYNRVSWYQQSPGTAPKLMIYDVSNRPSGAFSRFSGSRSGNTASLTISGLQPEDEADYYCSSHRTGYTVEVFGTGTKVTVLG
In the case of B5, the Kd in assay [4] is 15 nM.

B6: P2B2 IgG-HRP conjugate (antibody, V domains shown)
VH: QVQLVESGGGVVQPGRYLRLSCATSGFTFSNYAMHWVRQAPGKGLEWVALISYDGSNKYYADSVKGRFTISRDKSTNALYLQMNSLRVEDTAVYYCARERVPWDYYGMDVWGQGTTVTVSS
VL: QSVVTQPPSVSAAPGHKVSISCSGSNSNIGHNYVSWYQQFPGTAPKLLVYRDDNRPSEVPDRFSGSKSGTSATLGITGLQTADEADYYCGTWDSTLQHVVFGGGTKLTVL
notes: also called V7-ARS-HLA-A*03:01-specific antibody P2B2
In the case of B6, in assay [5], the “IC50 of free ARS1620” value came to 445 nM.

B7: P2B2 Fab (Fab, V domains shown)
VH: B6 VH
VL: QSVVTQPPSVSAAPGHKVSISCSGSNSNIGHNYVSWYQQFPGTAPKLLVYRDDNRPSEVPDRFSGSKSGTSATLGITGLQTADEADYYCGTWDSTLQHVVFGGGTKLTVLS
notes: also called P282
Consider B7, for which the figures for the Kd in assay [6] and in assay [7] were 470 nM and 43 nM, respectively.

B8: P1E5 Fab (Fab, V domains shown)
VH: QVQLQESGGGVVQPGRSLRLSCAASGFTFSSYEMNWVRQAPGKGLEWVAVISYDGSNKYYADSVKGRFTISRDNSKNTLYLQMNSLRAEDTAVYYCARDAYSGWFDYWGQGTLVTVSS
VL: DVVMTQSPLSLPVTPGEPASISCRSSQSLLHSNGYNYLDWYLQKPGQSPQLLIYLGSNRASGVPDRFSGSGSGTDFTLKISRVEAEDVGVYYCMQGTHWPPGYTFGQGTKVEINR
Take B8: the “AMG510 IC50” value in assay [1] was ~200 nM. Also, the Kd in assay [2] was 13 nM.

B9: P1C10 Fab (Fab, V domains shown)
VH: QVQLVQSGGGLVKPGGSLRLSCAASGFTFSSYSMNWVRQAPGKGLEWVSYISSRGRTIYYADSVKGRFTISRDNAKNSLYLQMNSLRAEDTAVYYCVRDVPGVWGFAYWGQGTLVTVSS
VL: QSVVTQPPSVSAAPGQKVTISCSGSSSNIGNHYVSWYQQLPGTAPKLLIYDDGKRPSGIPDRFSGSKSGTSATLGITGLQTGDEADYYCATWDNSLSVVLFGGGTKLTVLG
For B9, the Kd in assay [6] came out at 320 nM; in assay [7], 59 nM.

Values taken from patent US20260102528A1 (University of California, published 2026).
